Results on 33 molecules are retold here after patent US20210355194A1 (TWIST BIOSCIENCE, published 2021).

This assay concerns the target CV S-protein construct 6 trimer TP31001F (SARS-CoV-2, UniProt P0DTC2 14-1208). The assay can be described thus: SPR. On the technique in general: SPR reads the build-up and loss of mass on a sensor chip optically.

B1: variant 6-52 (Fc fusion)
VHH: EVQLVESGGGLVQPGGSLRLSCAASGDTYGSYWMGWFRQAPGKEREVVAAITSGGSTVYADSVKGRFTISADNSKNTAYLQMNSLKPEDTAVYYCARVDSRFDYWGQGTLVTVSS
One may read the Kd as the free concentration of one partner at which half of the binding sites on the other are occupied at equilibrium, for simple one-to-one binding. For the molecule B1, the dissociation constant Kd turned out to be 1.1 nM.

B2: variant 6-55 (Fc fusion)
VHH: EVQLVESGGGLVQPGGSLRLSCAASGFTMSSSWMGWFRQAPGKEREFVARITSGGSTGYADSVKGRFTISADNSKNTAYLQMNSLKPEDTAVYYCASVDGYFDYWGQGTLVTVSS
notes: VHH-Fc
On to B2, for which binding was put at a Kd of 0.3 nM.

B3: variant 6-72 (Fc fusion)
VHH: EVQLVESGGGLVQPGGSLRLSCAASGSTLSINAMGWFRQAPGKEREFVAAIDWSGGSTAYADSVKGRFTISADNSKNTAYLQMNSLKPEDTAVYYCARDSSATRTGPDYWGQGTLVTVSS
As to B3, the dissociation constant (Kd) worked out at 2 nM.

B4: variant 6-68 (Fc fusion)
VHH: EVQLVESGGGLVQPGGSLRLSCAASGFTLSDRAMGWFRQAPGKEREYVAHITAGGLSNYADSVKGRFTISADNSKNTAYLQMNSLKPEDTAVYYCVHLASQTGAGYFDLWGQGTLVTVSS
On to B4, for which binding was characterised by a dissociation constant (Kd) of 0.7 nM.

B5: variant 6-58 (Fc fusion)
VHH: EVQLVESGGGLVQPGGSLRLSCAASGRAVSTYAMGWFRQAPGKEREFVAAISGSENVTSYADSVKGRFTISADNSKNTAYLQMNSLKPEDTAVYYCLSVTGDTEDYGVFDTWGQGTLVTVSS
In turn, B5 showed an equilibrium dissociation constant (Kd) of 1 nM.

B6: variant 6-78 (Fc fusion)
VHH: EVQLVESGGGLVQPGGSLRLSCAASGRTYDAMGWFRQAPGKEREFVASVTSGGYTHYADSVKGRFTISADNSKNTAYLQMNSLKPEDTAVYYCAKFGRKIVGATELDYWGQGTLVTVSS
notes: VHH-Fc
Turning to B6, the dissociation constant (Kd) worked out at 0.4 nM.

B7: variant 6-44 (Fc fusion)
VHH: EVQLVESGGGLVQPGGSLRLSCAASGGTFGVYHMGWFRQAPGKEREFIGRITWTDGSTYYADSVKGRFTISADNSKNTAYLQMNSLKPEDTAVYYCFGLLEVYDMTFDYWGQGTLVTVSS
Turning to B7, binding was put at a Kd of 0.9 nM.

B8: variant 6-54 (Fc fusion)
VHH: EVQLVESGGGLVQPGGSLRLSCAASGFEFENHWMGWFRQAPGKEREYVAHITAGGLSNYADSVKGRFTISADNSKNTAYLQMNSLKPEDTAVYYCGRHWGIYDSSGFSSFDYWGQGTLVTVSS
Regarding B8, the dissociation constant Kd worked out at 0.9 nM.

B9: variant 6-75 (Fc fusion)
VHH: EVQLVESGGGLVQPGGSLRLSCAASGGTFSTYWMGWFRQAPGKEREFVAAISRSGGNTYYADSVKGRFTISADNSKNTAYLQMNSLKPEDTAVYYCVRHSGTDGDSSFDYWGQGTLVTVSS
The molecule B9 gave a Kd of 1 nM.

B10: variant 6-46 (Fc fusion)
VHH: EVQLVESGGGLVQPGGSLRLSCAASGLTFSAMGWFRQAPGKEREFVALIRRDGSTIYADSVKGRFTISADNSKNTAYLQMNSLKPEDTAVYYCAALGILFGYDAFDIWGQGTLVTVSS
B10 yielded an equilibrium dissociation constant (Kd) of 1.9 nM.

B11: variant 6-84 (Fc fusion)
VHH: EVQLVESGGGLVQPGGSLRLSCAASGFTPDDYAMGWFRQAPGKEREFVAAINSGGSYTYYADSVKGRFTISADNSKNTAYLQMNSLKPEDTAVYYCARDRGPWGQGTLVTVSS
Turning to B11, the Kd was found to be 0.7 nM.

B12: variant 6-47 (Fc fusion)
VHH: EVQLVESGGGLVQPGGSLRLSCAASGRTFSMHAMGWFRQAPGKERELVASITYGGNINYADSVKGRFTISADNSKNTAYLQMNSLKPEDTAVYYCAKEGYYDSTGYRTYFQQWGQGTLVTVSS
With B12, binding was characterised by a dissociation constant (Kd) of 5.6 nM.

B13: variant 6-95 (Fc fusion)
VHH: EVQLVESGGGLVQPGGSLRLSCAASGIPSSIRAMGWFRQAPGKEREFVAVIRWTGGSTYYADSVKGRFTISADNSKNTAYLQMNSLKPEDTAVYYCARDIGYYDSSGYYNDGGFDYWGQGTLVTVSS
Molecule B13 displayed a dissociation constant Kd of 7.6 nM.

B14: variant 6-53 (Fc fusion)
VHH: EVQLVESGGGLVQPGGSLRLSCAASGISINTNVMGWFRQAPGKEREFVAAISTGSVTIYADSVKGRFTISADNSKNTAYLQMNSLKPEDTAVYYCARVDDFGYFDLWGQGTLVTVSS
Consider B14, for which the Kd was 24.2 nM.

B15: variant 6-90 (Fc fusion)
VHH: EVQLVESGGGLVQPGGSLRLSCAASGFPFSIWPMGWFRQAPGKEREFVAAVRWSSTYYADSVKGRFTISADNSKNTAYLQMNSLKPEDTAVYYCATGECDGGSCSLAYWGQGTLVTVSS
As for B15, the affinity, expressed as Kd, was 17.1 nM.

B16: variant 6-45 (Fc fusion)
VHH: EVQLVESGGGLVQPGGSLRLSCAASGNMFSINAMGWFRQAPGKEREFVTLISWSSGRTSYADSVKGRFTISADNSKNTAYLQMNSLKPEDTAVYYCASLGYCSGGSCFDYWGQGTLVTVSS
With B16, the Kd turned out to be 1.3 nM.

B17: variant 6-74 (Fc fusion)
VHH: EVQLVESGGGLVQPGGSLRLSCAASGFAFGDSWMGWFRQAPGKERELVAAITSGGSTDYADSVKGRFTISADNSKNTAYLQMNSLKPEDTAVYYCARGLLWFGELFGYWGQGTLVTVSS
B17 returned a Kd of 498 nM.

B18: variant 6-49 (Fc fusion)
VHH: EVQLVESGGGLVQPGGSLRLSCAASGSTVLINAMGWFRQAPGKEREFVAAISWSPGRTDYADSVKGRFTISADNSKNTAYLQMNSLKPEDTAVYYCARDCSGGSCYSGDYWGQGTLVTVSS
B18 displayed a Kd of 2.2 nM.

B19: variant 6-71 (Fc fusion)
VHH: EVQLVESGGGLVQPGGSLRLSCAASGITFSNDAMGWFRQAPGKEREFVAIITSSDTNDTTNYADSVKGRFTISADNSKNTAYLQMNSLKPEDTAVYYCARLHYYDSSGYFDYWGQGTLVTVSS
B19 came in with a dissociation constant Kd of 0.6 nM.

B20: variant 6-62 (Fc fusion)
VHH: EVQLVESGGGLVQPGGSLRLSCAASGSTFSGNWMGWFRQAPGKEREFVAVISWTGGSTYYADSVKGRFTISADNSKNTAYLQMNSLKPEDTAVYYCATHNSLSGFDYWGQGTLVTVSS
In turn, B20 displayed an equilibrium dissociation constant (Kd) of 198 nM.

B21: variant 6-56 (Fc fusion)
VHH: EVQLVESGGGLVQPGGSLRLSCAASGNIFRSNMGWFRQAPGKEREFVAGITWNGDTTYYADSVKGRFTISADNSKNTAYLQMNSLKPEDTAVYYCARALGVTYQFDYWGQGTLVTVSS
B21 displayed a Kd of 14.9 nM.

B22: variant 6-70 (Fc fusion)
VHH: EVQLVESGGGLVQPGGSLRLSCAASGFNLDDYADMGWFRQAPGKEREFVAAIGWGGGSTRYADSVKGRFTISADNSKNTAYLQMNSLKPEDTAVYYCAREILWFGEFGEPNVWGQGTLVTVSS
Consider B22, for which the affinity, expressed as Kd, was 1.1 nM.

B23: variant 6-67 (Fc fusion)
VHH: EVQLVESGGGLVQPGGSLRLSCAASGSFSNYAMGWFRQAPGKEREFVAAISSSGALTSYADSVKGRFTISADNSKNTAYLQMNSLKPEDTAVYYCWIVGPGPLDGMDVWGQGTLVTVSS
In turn, B23 gave a dissociation constant Kd of 0.1 nM.

B24: variant 6-76 (Fc fusion)
VHH: EVQLVESGGGLVQPGGSLRLSCAASGLAFDFDGMGWFRQAPGKEREGVAAINSGGSTYYADSVKGRFTISADNSKNTAYLQMNSLKPEDTAVYYCARFFRAHDYWGQGTLVTVSS
notes: VHH-Fc
Molecule B24 came in with a Kd of 1.8 nM.

B25: variant 6-82 (Fc fusion)
VHH: EVQLVESGGGLVQPGGSLRLSCAASGSSLDAYGMGWFRQAPGKEREFVAAISWGGGSIYYADSVKGRFTISADNSKNTAYLQMNSLKPEDTAVYYCARLSQGMVALDYWGQGTLVTVSS
In turn, B25 returned a Kd of 0.6 nM.

B26: variant 6-60 (Fc fusion)
VHH: EVQLVESGGGLVQPGGSLRLSCAASGDTYGSYWMGWFRQAPGKEREFVATISQSGAATAYADSVKGRFTISADNSKNTAYLQMNSLKPEDTAVYYCAGLLRYSGTYYDAFDVWGQGTLVTVSS
notes: VHH-Fc
As for B26, the affinity, expressed as Kd, was 0.1 nM.

B27: variant 6-97 (Fc fusion)
VHH: EVQLVESGGGLVQPGGSLRLSCAASGFTFSSLAMGWFRQAPGKEREFVAAITWSGDITNYADSVKGRFTITADNSKNTAYLQMNSLKPEDTAVYYCLRLSSSGFDHWGQGTLVTVSS
On to B27, for which the dissociation constant (Kd) stood at 57.9 nM.

B28: variant 6-57 (Fc fusion)
VHH: EVQLVESGGGLVQPGGSLRLSCAASGLTFDDHSMGWFRQAPGKEREFVAAVPLSGNTYYADSVKGRFTISADNSKNTAYLQMNSLKPEDTAVYYCASFSGGPADFDYWGQGTLVTVSS
B28 showed a Kd of 0.7 nM.

B29: variant 6-50 (Fc fusion)
VHH: EVQLVESGGGLVQPGGSLRLSCAASGFSFDRWAMGWFRQAPGKEREWVASLATGGNTNYADSVKGRFTISADNSKNTAYLQMNSLKPEDTAVYYCARVTNYDAFDIWGQGTLVTVSS
Take B29: binding was put at a Kd of 67.6 nM.

B30: variant 6-51 (Fc fusion)
VHH: EVQLVESGGGLVQPGGSLRLSCAASGYTYSSYVMGWFRQAPGKEREFVAAISRFGSTYYADSVKGRFTISADNSKNTAYLQMNSLKPEDTAVYYCARDSGEHFWDSGYIDHWGQGTLVTVSS
As to B30, the affinity, expressed as Kd, was 0.8 nM.

B31: variant 6-73 (Fc fusion)
VHH: EVQLVESGGGLVQPGGSLRLSCAASGHTFSGYAMGWFRQAPGKEREFVAVITREGSTYYADSVKGRFTISADNSKNTAYLQMNSLKPEDTAVYYCARLGGEGFDYWGQGTLVTVSS
notes: VHH-Fc
B31 registered a dissociation constant (Kd) of 0.5 nM.

B32: variant 6-99 (Fc fusion)
VHH: EVQLVESGGGLVQPGGSLRLSCAASGIPFRSRTMGWFRQAPGKEREFVAGISRSGASTAYADSVKGRFTISADNSKNTAYLQMNSLKPEDTAVYYCTHANDYGDYWGQGTLVTVSS
As to B32, the Kd is 3.4 nM.

B33: variant 6-66 (Fc fusion)
VHH: EVQLVESGGGLVQPGGSLRLSCAASGLTFSLFAMGWFRQAPGKERELVAAISSGGSTDYADSVKGRFTISADNSKNTAYLQMNSLKPEDTAVYYCARGNTKYYYDSSGYSSAFDYWGQGTLVTVSS
The molecule B33 came in with a dissociation constant Kd of 7.7 nM.
